Experimental data from PMC3897220, “A comparative study of Whi5 and retinoblastoma proteins: from sequence and structure analysis to intracellular networks” (Frontiers in Physiology, 2013).
One block for each molecule: values may come before it.

Legend:
[1] = biological target: Whi5 (Whi5Sc) motif 3, 245-267 (UniProt Q12416); assay: SPR, biotinylated motif 3 on streptavidin chip; settings: reference: unphosphorylated motif 1 peptide; sites T143,S154,S156,S161
[2] = biological target: T1, Whi5^Sc motif 3 peptide (residues 245-267), biotinylated (S. cerevisiae, UniProt Q12416 245-267, biotin (position not given)); assay: SPR; BIAcore X; biotinylated motif 3 immobilised on streptavidin Sensor Chip SA (~1000 resonance units), reference cell saturated with biotin; analytes motif 1 and phospho-motif 1 at 20 to 340 uM; HBS-EP buffer, flow 5 ul/min; settings: both partners purified
T1 construct: Whi5 of Saccharomyces cerevisiae, motif 3, residues 245-267 (Whi5^Sc numbering); Held on a streptavidin chip by its biotin; source: synthetic peptide (Primm, Milano, Italy)
T1 peptide (looked up): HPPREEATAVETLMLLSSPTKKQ

binding against the reference [1]: weaker
Molecule: Whi5 (Whi5Sc) motif 1, 136-162 (from UniProt Q12416) phospho-motif 1 peptide (pT143, pS154, pS156, pS161)

binding result [2]: binds
B1: Whi5^Sc motif 1 peptide (residues 136-162) (peptide, UniProt Q12416 136-162, looked up)
peptide: MPLLPPTTPKSRRSEVFLSPSPRLRSP
notes: Whi5 of Saccharomyces cerevisiae, motif 1, residues 136-162 (Whi5^Sc numbering); source: synthetic peptide (Primm, Milano, Italy)
